This assay concerns the target MLL PHD3 finger (residues 1565-1627), GST cleaved (human) (UniProt Q03164). The experiment in a line: other fluorescence titration.

The Kd is the constant that tells how readily two partners part at equilibrium.

MLL PHD3 finger (residues 1565-1627), GST cleaved (human), sequence (Q03164 1565-1627): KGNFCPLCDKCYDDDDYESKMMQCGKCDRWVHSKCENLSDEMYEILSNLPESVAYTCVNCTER

As to “H3K4me3 peptide (12-mer histone tail peptide)”, the dissociation constant Kd was determined as 19 µM.

The values are drawn from publication PMC2886590.
